Patent US6770458

What was measured:
Assay in all cases: cell-based or functional assay
[1] = target: p53 fused to the GAL4 DNA-binding domain (pAS2) (UniProt P04386)
[2] = target: CDK2 fused to the GAL4 DNA-binding domain (pAS2) (UniProt P04386)
[3] = target: Smad7 (expression construct, tag not specified)

Sequence of p53 fused to the GAL4 DNA-binding domain (pAS2) (P04386 1-147): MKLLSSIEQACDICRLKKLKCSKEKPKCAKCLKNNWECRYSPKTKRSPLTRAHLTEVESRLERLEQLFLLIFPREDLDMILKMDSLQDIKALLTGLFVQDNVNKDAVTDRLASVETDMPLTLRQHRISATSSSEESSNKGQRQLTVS
Sequence of CDK2 fused to the GAL4 DNA-binding domain (pAS2) (P04386 1-147): as above

Row | β-galactosidase Activity (relative scale) [1] | β-galactosidase Activity (relative scale) [2] | fold repression of (CAGA)9 MLP-Luc reporter activity in HepG2 cells [3] | Substance
1 | < 1 | 1.2 | – | STRAP (Serine-Threonine Kinase Receptors Associated Protein) in pACT (from UniProt Q9Z1Z2 1-350)
2 | 1.1 | – | – | FKBP12.6 in pACT (from UniProt Q9Z2I2 1-108)
3 | – | – | 105 fold | STRAP (expression construct, tag not specified) (from UniProt Q9Z1Z2 1-350)
